What was measured:
[1] = biological target: H-2K^b MHC class I molecule (mouse) (UniProt P01901); test: FACS on CMT.64 cells; IFN * (so in the source), peptide +, hβ2m +
[2] = biological target: H-2K^b MHC class I molecule (mouse) (UniProt P01901); test: FACS on CMT.64 cells; IFN -, peptide -, hβ2m -
[3] = biological target: H-2K^b MHC class I molecule (mouse) (UniProt P01901); test: FACS on RMA cells; IFN -, peptide +, hβ2m +
[4] = biological target: H-2K^b MHC class I molecule (mouse) (UniProt P01901); test: FACS on RMA cells; IFN +, peptide +, hβ2m -
[5] = biological target: H-2K^b MHC class I molecule (mouse) (UniProt P01901); test: FACS on RMA cells; IFN -, peptide -, hβ2m -
[6] = biological target: H-2K^b MHC class I molecule (mouse) (UniProt P01901); test: FACS on CMT.64 cells; IFN -, peptide +, hβ2m +
[7] = biological target: H-2K^b MHC class I molecule (mouse) (UniProt P01901); test: FACS on RMA cells; IFN +, peptide -, hβ2m -
[8] = biological target: H-2K^b MHC class I molecule (mouse) (UniProt P01901); test: FACS on RMA-S cells; IFN +, peptide -, hβ2m -
[9] = biological target: H-2K^b MHC class I molecule (mouse) (UniProt P01901); test: FACS on RMA-S cells; IFN +, peptide -, hβ2m +
[10] = biological target: H-2K^b MHC class I molecule (mouse) (UniProt P01901); test: FACS on RMA-S cells; IFN -, peptide -, hβ2m -
[11] = biological target: H-2K^b MHC class I molecule (mouse) (UniProt P01901); test: FACS on RMA-S cells; IFN +, peptide +, hβ2m +
[12] = biological target: H-2K^b MHC class I molecule (mouse) (UniProt P01901); test: FACS on CMT.64 cells; IFN +, peptide -, hβ2m -
[13] = biological target: H-2K^b MHC class I molecule (mouse) (UniProt P01901); test: FACS on RMA cells; IFN +, peptide -, hβ2m +
[14] = biological target: H-2K^b MHC class I molecule (mouse) (UniProt P01901); test: FACS on RMA cells; IFN +, peptide +, hβ2m +
[15] = biological target: H-2K^b MHC class I molecule (mouse) (UniProt P01901); test: FACS on RMA-S cells; IFN -, peptide +, hβ2m +
[16] = biological target: H-2K^b MHC class I molecule (mouse) (UniProt P01901); test: FACS on RMA-S cells; IFN +, peptide +, hβ2m -

UniProt P01901, sequence (P01901 22-305 limits assumed): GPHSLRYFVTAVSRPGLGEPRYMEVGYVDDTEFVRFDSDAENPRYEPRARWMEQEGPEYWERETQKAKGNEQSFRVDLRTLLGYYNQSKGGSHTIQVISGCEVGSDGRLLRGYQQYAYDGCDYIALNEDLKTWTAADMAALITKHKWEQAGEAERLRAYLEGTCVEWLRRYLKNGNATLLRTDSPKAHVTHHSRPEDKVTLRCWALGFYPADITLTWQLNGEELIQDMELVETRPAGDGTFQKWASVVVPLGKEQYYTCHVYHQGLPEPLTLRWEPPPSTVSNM

fluorescence units (arbitrary fluorescence units) [1]: 35 | fluorescence units (arbitrary fluorescence units) [2]: 5 | fluorescence units (arbitrary fluorescence units) [3]: 242 | fluorescence units (arbitrary fluorescence units) [4]: 606 | fluorescence units (arbitrary fluorescence units) [5]: 164 | fluorescence units (arbitrary fluorescence units) [6]: 8 | fluorescence units (arbitrary fluorescence units) [7]: 346 | fluorescence units (arbitrary fluorescence units) [8]: 12 | fluorescence units (arbitrary fluorescence units) [9]: 10 | fluorescence units (arbitrary fluorescence units) [10]: 12 | fluorescence units (arbitrary fluorescence units) [11]: 41 | fluorescence units (arbitrary fluorescence units) [12]: 26 | fluorescence units (arbitrary fluorescence units) [13]: 438 | fluorescence units (arbitrary fluorescence units) [14]: 780 | fluorescence units (arbitrary fluorescence units) [15]: 70 | fluorescence units (arbitrary fluorescence units) [16]: 10
Substance: 142-23.3 anti H-2 K^b monoclonal antibody

From patent US7378087
